From patent publication US20090117107A1

Molecular target: rRANKL (Cambrex) (UniProt O14788)
Experiment: cell-based or functional assay

Chain of UniProt O14788 (O14788 140-317 limits assumed): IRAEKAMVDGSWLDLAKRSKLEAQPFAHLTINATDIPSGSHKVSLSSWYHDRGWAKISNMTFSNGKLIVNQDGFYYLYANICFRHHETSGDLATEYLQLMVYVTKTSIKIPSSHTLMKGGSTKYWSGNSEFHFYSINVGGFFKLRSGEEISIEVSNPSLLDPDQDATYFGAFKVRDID

“Recombinant OPG (R&D cat185-05-025) (from UniProt O00300 22-401) (receptor)” was tested, and the rRANKL-induced OC differentiation in OCP-RASF coculture, αvβ3 integrin cELISA luminescent readout (ng/mL rRANKL inhibited by 22 ng/mL rOPG) was < 7.5 and the rRANKL-induced OC differentiation in OCP-RASF coculture, αvβ3 integrin cELISA luminescent readout (ng/mL rRANKL inhibited by 66 ng/mL rOPG) was < 15.
